Laboratory results taken from article PMC3992121 (Proteins, 2013).

B1: BaiA2, 3α-Hydroxysteroid Dehydrogenase from Clostridium scindens VPI 12708 (enzyme, UniProt P19337 1-249, looked up)
chain: MNLVQDKVTIITGGTRGIGFAAAKIFIDNGAKVSIFGETQEEVDTALAQLKELYPEEEVLGFAPDLTSRDAVMAAVGQVAQKYGRLDVMINNAGITSNNVFSRVSEEEFKHIMDINVTGVFNGAWCAYQCMKDAKKGVIINTASVTGIFGSLSGVGYPASKASVIGLTHGLGREIIRKNIRVVGVAPGVVNTDMTNGNPPEIMEGYLKALPMKRMLEPEEIANVYLFLASDLASGITATTVSVDGAYRP
modifications: selenomethionine (protein expressed in a selenomethionine-containing medium for structure determination)
B2: BaiA1, 3α-Hydroxysteroid Dehydrogenase from Clostridium scindens VPI 12708 (enzyme, UniProt P07914 1-249, looked up)
chain: MKLVQDKITIITGGTRGIGFAAAKLFIENGAKVSIFGETQEEVDTALAQLKELYPEEEVLGFAPDLTSRDAVMAAVGTVAQKYGRLDVMINNAGITMNSVFSRVSEEDFKNIMDINVNGVFNGAWSAYQCMKDAKQGVIINTASVTGIYGSLSGIGYPTSKAGVIGLTHGLGREIIRKNIRVVGVAPGVVDTDMTKGLPPEILEDYLKTLPMKRMLKPEEIANVYLFLASDLASGITATTISVDGAYRP

Molecular target: the molecule itself
Test: SEC

Protein	stoichiometry N
B1	4
B2	4
